The values below come from patent publication US20220267421A1 (INVOX PHARMA, published 2022).

In test [1] the target is T1, human E-Cadherin (R&D systems, 8505-EC) (human, UniProt P12830 155-707).
T1 sequence (looked up): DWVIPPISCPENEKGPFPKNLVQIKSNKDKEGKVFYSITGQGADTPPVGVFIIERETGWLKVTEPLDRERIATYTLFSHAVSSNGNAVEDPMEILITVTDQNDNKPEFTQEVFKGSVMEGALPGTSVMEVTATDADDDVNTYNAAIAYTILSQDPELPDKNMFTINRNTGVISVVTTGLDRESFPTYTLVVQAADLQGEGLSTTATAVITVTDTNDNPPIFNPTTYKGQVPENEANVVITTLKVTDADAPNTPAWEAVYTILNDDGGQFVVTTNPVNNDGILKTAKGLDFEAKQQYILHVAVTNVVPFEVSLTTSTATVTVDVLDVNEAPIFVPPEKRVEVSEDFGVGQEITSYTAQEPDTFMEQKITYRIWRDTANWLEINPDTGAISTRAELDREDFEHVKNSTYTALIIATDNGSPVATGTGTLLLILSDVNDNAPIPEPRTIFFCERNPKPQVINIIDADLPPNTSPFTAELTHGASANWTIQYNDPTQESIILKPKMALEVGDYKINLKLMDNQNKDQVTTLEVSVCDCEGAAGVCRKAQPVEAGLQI
Description: ELISA, antigen coated at 1 ug/ml. Here is the method:
(§1) A similar protocol was used as described in section 1.2.1 in which maxisorp plates were coated with 1 μg/ml of recombinant human MSLN-His-Avi, human CEACAM-5-His-Fc (Sino Biological, 1077-H03H), human E-Cadherin (R&D systems, 8505-EC), human Thrombomodulin (Peprotech, 100-58) or human EpCAM-hFc (in-house production). Binding of the anti-MSLN mAbs, tested at a concentration range of 0.02 to 1000 nM (3-fold dilutions) was detected using anti-human Fab-HRP (Sigma, A0293). Positive controls for the respective molecules included human EpCAM antibody (clone 2G8 from patent no. U.S. Pat. No. 8,236,308 B2) CEACAM-5 antibody (clone hMN15 from patent no. U.S. Pat. No. 8,771,690 B2), human E-Cadherin antibody, mouse IgG2b clone 180215 (R&D systems, MAB1838), human Thrombomodulin antibody, mouse IgG1, clone 501733 (R&D systems, MAB3947). The latter two were detected using goat anti mouse Fc-HRP (Sigma, A9309) as secondary mAb.
Background: In an ELISA, binding on a coated surface is turned into a signal by an enzyme label.

Test [2] concerns the target T2, human EpCAM-hFc (in-house production) (human, UniProt P16422 24-265, limits assumed).
T2 construct: not shown: human Fc
T2 sequence (looked up): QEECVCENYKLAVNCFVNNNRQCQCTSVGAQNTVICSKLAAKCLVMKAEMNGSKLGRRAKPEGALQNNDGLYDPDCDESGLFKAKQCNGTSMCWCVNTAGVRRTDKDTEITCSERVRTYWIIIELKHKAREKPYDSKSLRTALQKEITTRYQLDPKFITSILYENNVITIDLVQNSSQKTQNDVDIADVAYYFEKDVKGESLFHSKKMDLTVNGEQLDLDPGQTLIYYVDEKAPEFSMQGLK
The experiment in a line: ELISA, antigen coated at 1 ug/ml. As for the experimental part: as §1

Test [3] deals with T3, human CEACAM-5-His-Fc (Sino Biological, 1077-H03H) (human, UniProt P06731 35-685).
T3 construct: not shown: His tag and Fc
T3 sequence (looked up): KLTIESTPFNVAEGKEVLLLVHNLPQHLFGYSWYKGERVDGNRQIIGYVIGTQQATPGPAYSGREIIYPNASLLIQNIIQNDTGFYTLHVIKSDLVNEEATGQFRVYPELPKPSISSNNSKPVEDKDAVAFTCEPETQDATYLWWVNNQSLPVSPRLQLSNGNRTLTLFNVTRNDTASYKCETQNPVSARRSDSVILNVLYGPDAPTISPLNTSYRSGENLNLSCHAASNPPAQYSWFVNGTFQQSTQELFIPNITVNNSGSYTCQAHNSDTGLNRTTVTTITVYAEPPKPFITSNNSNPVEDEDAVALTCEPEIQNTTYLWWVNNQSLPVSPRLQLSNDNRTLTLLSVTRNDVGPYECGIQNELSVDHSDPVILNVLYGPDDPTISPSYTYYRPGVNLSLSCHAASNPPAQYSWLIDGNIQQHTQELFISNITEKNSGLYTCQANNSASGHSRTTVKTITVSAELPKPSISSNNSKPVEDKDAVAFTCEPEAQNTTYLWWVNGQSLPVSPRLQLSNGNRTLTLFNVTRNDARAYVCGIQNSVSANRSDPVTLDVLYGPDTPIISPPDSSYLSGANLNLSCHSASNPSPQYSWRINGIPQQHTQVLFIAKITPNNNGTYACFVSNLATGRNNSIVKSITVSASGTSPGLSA
Description: ELISA, antigen coated at 1 ug/ml. Here is the method: as §1

Test [4] concerns the target human Thrombomodulin (Peprotech, 100-58) (human, UniProt P07204 19-515). Description: ELISA, antigen coated at 1 ug/ml. Here is the method:
as §1

For test [5], the target named is T4, cell surface human mesothelin (MSLN) (human, UniProt Q13421 296-598).
T4 construct: whole, on cells; also called cell surface MSLN
Description: flow cytometry, NCI-H226 cells (n = 3). Here is the method:
Briefly, NCI-H226 cells (ATCC CRL-5826) were harvested from T175 cell culture flasks using StemPro Accutase (Gibco, A11105-01). Cells were centrifuged at 1200 rpm for 3 min and resuspended in ice cold FACS buffer made up of DPBS (Life Technologies, 14190169) and 1% BSA (Sigma-Aldrich, A7906) at 2×10⁶ cells/ml and 50 μl per well was seeded in a 96-well V-bottom plate (Costar, 3894). All mAbs tested were diluted in FACS buffer in 120 μl at a concentration range of 0.01-200 nM (4-fold dilutions). The NCI-H226 cells were then centrifuged, supernatant removed and cells resuspended in 100 μl of each mAb dilution and incubated at 4° C. for 45 min. Cells were washed twice by centrifugation with 150 μl FACS buffer, resuspended in 100 μl containing goat anti-human IgG (γ-chain specific) F(ab′)2 fragment-R-Phycoerythrin antibody (Sigma, P8047) diluted 1:1000 in FACS buffer and incubated at 4° C. for 45 min. The cells were washed once with 150 μl FACS buffer and then with 150 μl DPBS, resuspended in 150 μl DPBS containing DAPI (Biotium, 40043) at 1:10.000 and read on the BDCantoll or iQue (Intellicyt). Data was analysed using FlowJo v10 to determine the signal geometric mean for PE for live cells in each well.

Test [6] concerns the target T5, human MSLN-His-Avi (human, UniProt Q13421 296-598, single biotin (BirA) in the biotinylated form).
T5 construct: Monomeric, made in HEK293-6E; Used both immobilised and in solution; also called hMSLN-His-Avi; biotinylated hMSLN-His-Avi
The experiment in a line: ELISA, hMSLN-His-Avi coated at 1 ug/ml.

Test [7] has as its target T5, human MSLN-His-Avi. Description: SPR (Biacore), hMSLN-His-Avi immobilised at 50 RU, mAb injected. Here is the method:
(§2) Human MSLN-His-Avi was immobilised on flow cell 2 on a CM5 Series S BIAcore sensor chip (GE Healthcare, BR100530) using an amine coupling kit (GE Healthcare, BR10050) to approximately 200 response units (RU). Flow cell 1 was left blank for subtraction. HEK293-6E supernatants or purified proteins were adjusted with HBS-EP+(GE Healthcare) to approximately 50 nM anti-MSLN mAb per sample. Samples were injected over flow cell 1 and 2 for 2.5 min at 30 μl/min and then allowed to dissociate in HBS-EP buffer for 2.5 min. Regeneration was achieved by injecting 10 mM glycine pH 1.5 (GE Healthcare, BR100354) for 30 seconds at a rate of 30 μl/min. Subtracted data (flow cell 2−flow cell 1) were analysed using BIAevaluation 3.2 Software (GE Healthcare).
(§3) For each bin described in 2.1.3, the binding kinetics were determined using the same method as described in section 2.1.2, except that human or cyno MSLN-His-Avi was immobilised at 50 or 100 RU. Clones were tested at a concentration range of 81 nM to 0.33 nM in 3-fold dilutions.
In general terms: In SPR one partner is held on a chip, and binding of the other changes the refractive index at the surface.

In test [8] the target is T5, human MSLN-His-Avi. The experiment in a line: SPR (Biacore), hMSLN-His-Avi immobilised at 100 RU, mAb injected. As for the experimental part: as §2, §3
The target in test [9] is T6, mouse MSLN-His-Avi (mouse, UniProt Q61468 298-600, single biotin (BirA) in the biotinylated form).
T6 construct: Monomeric, made in HEK293-6E; also called mMSLN-His-Avi
T6 sequence: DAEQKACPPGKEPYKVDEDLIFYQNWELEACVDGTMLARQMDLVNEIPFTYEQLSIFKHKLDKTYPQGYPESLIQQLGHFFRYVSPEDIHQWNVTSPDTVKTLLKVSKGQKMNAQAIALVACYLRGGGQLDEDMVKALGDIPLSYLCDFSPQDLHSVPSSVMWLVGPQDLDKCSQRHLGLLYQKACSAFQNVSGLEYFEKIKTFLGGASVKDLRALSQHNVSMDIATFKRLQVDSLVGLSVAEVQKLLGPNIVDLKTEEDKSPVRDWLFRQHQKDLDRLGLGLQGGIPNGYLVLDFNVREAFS
The experiment in a line: SPR (Biacore), mMSLN-His-Avi immobilised at 50 RU. As for the experimental part:
(§4) The procedure for binding to immobilised MSLN was similar to the method described in section 2.1.4 with mMSLN-His-Avi immobilised at 50 RU. To determine the affinity for soluble MSLN the mAb² were captured via anti-human Fc. Briefly, 25 μg/ml anti-human IgG (Fc) antibody (GE Healthcare, Human Antibody Capture Kit, BR100839) was coated on flow cells 1, 2, 3 and 4 of a Biacore sensor chip CM5 (GE Healthcare, BR100530) achieving a final response of approximately 750 RU. The mAb² clones, diluted in HBS-EP buffer (GE Healthcare, BR100188) at 50 nM, were injected individually on flows cell 2, 3 and 4 at 30 μl/min to achieve a response of approximately 100 RU. […] Regeneration was achieved by injecting 3 M magnesium chloride (GE Healthcare, Human Antibody Capture Kit, BR100839) for 30 seconds at a rate of 30 μl/min.

For test [10], the target named is T6, mouse MSLN-His-Avi. The experiment in a line: ratio of the two SPR KD. Here is the method:
as §4

Test [11] has as its target T6, mouse MSLN-His-Avi. The experiment in a line: SPR (Biacore), mAb^2 captured via anti-human Fc, mMSLN-His-Avi in solution. Here is the method: as §4

Where a chain is given by its changes, count along the chain named.

T5 sequence (Q13421 other isoform, or with tags, fused parts or gaps): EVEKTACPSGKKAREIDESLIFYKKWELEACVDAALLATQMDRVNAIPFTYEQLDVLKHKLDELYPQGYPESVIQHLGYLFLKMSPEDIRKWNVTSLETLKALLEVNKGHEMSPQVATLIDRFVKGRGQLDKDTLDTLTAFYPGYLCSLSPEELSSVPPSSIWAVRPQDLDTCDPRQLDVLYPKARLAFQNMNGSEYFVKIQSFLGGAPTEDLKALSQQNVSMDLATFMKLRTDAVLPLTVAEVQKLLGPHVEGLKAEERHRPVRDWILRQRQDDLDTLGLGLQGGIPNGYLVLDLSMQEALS
T4 sequence (Q13421 other isoform, or with tags, fused parts or gaps limits assumed): as the sequence (Q13421 other isoform, or with tags, fused parts or gaps) above
Sequence of human Thrombomodulin (Peprotech, 100-58) (P07204 19-515 limits assumed): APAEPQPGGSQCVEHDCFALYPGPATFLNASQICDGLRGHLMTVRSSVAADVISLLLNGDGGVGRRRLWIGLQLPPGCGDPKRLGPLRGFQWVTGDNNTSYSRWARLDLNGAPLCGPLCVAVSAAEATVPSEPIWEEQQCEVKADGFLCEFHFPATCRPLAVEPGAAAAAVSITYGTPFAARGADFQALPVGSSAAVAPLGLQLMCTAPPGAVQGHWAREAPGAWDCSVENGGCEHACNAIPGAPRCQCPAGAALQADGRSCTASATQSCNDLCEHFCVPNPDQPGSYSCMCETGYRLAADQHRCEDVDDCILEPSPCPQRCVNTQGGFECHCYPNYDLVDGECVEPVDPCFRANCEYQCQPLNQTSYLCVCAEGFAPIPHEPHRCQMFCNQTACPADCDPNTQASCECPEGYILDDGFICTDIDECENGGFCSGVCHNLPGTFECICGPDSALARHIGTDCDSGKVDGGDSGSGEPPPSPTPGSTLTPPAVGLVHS

B1: G1-AA/FS28-185 (antibody, human IgG1, kappa, L234A L235A, V domains shown)
VH: EVQLLESGGGLVQPGGSLRLSCAASGFTFTTSAMSWVRQAPGKGLEWVSRINPYEGETNYADSVKGRFTISRDNSKNTLYLQMNSLRAEDTAVYYCARGWSIATYYKSAMDYWGQGTLVTVSS
VL: EIVLTQSPGTLSLSPGERATLSCRASQSVSSSYLAWYQQKPGQAPRLLIYGASSRATGIPDRFSGSGSGTDFTLTISRLEPEDFAVYYCQQSSYSAPVTFGQGTKVEIKR
notes: IgG1 LALA
A word on the EC50: it is the concentration needed to bring the measured effect to its halfway point. A high value points to a need for much substance. The term Kd denotes the free concentration of one partner at which half of the binding sites on the other are occupied at equilibrium, for simple one-to-one binding. With B1, the binding result in test [1], in test [2], in [3] and in [4] was “no binding (tested: 1000 nM)” throughout. Further, the EC50 in test [5] was 37.5 nM; in test [6] it was around 0.5 nM. In addition, the “Emax (MFI signal)” value in test [5] came out at 2440 MFI. In [6], this molecule yielded a maximum binding signal of 3. For the same molecule, the Kd in [7] was found to be 37 nM; in test [8], 29.6 nM.

B2: FS22-063-AA/FS28m-228 mAb^2 (bispecific antibody, human IgG1, kappa, L234A L235A, V domains shown)
VH: EVQLLESGGGLVQPGGSLRLSCAASGFTFSTYFMVWVRQAPGKGLEWVSMISPKSSNTYYADSVKGRFTISRDNSKNTLYLQMNSLRAEDTAVYYCARWFTPARFDYWGQGTLVTVSS
VL: EIVLTQSPGTLSLSPGERATLSCRASQSVSSSYLAWYQQKPGQAPRLLIYGASSRATGIPDRFSGSGSGTDFTLTISRLEPEDFAVYYCQQPFPFSFTFGQGTKVEIKR
notes: LALA
B2: the Kd is 7.9 nM in test [9] and 252 nM in test [11]. Moreover, in [10], the “Ratio of KD in solution/immobilised for mouse MSLN-His-Avi” value stood at 31.9.

B3: FS22m-063-AA/FS28m-228-010 mAb^2 (bispecific antibody, human IgG1, kappa, L234A L235A, V domains shown)
VH: B2 VH with W99Y, F100H, T101I, P102S, A103P
VL: B2 VL
notes: Anti-mouse CD137 Fcab with anti-mouse MSLN Fab; LALA; also called CD137/MSLN mAb^2
Consider B3, for which the Kd amounted to 2.6 nM in [9] and 60.2 nM in test [11]. For the same molecule, the “Ratio of KD in solution/immobilised for mouse MSLN-His-Avi” value in test [10] turned out to be 23.2.
